This is an account of results in PMC10703783, “Programmed cell death 11 modulates but not entirely relies on p53-HDM2 loop to facilitate G2/M transition in colorectal cancer cells” (Oncogenesis, 2023).

B2: His-S-tagged PDCD11 (1033-1431) (domain or fragment, human, UniProt Q14690 1033-1431, looked up)
chain: LSIGDMVTGTVKSIKPTHVVVTLEDGIIGCIHASHILDDVPEGTSPTTKLKVGKTVTARVIGGRDMKTFKYLPISHPRFVRTIPELSVRPSELEDGHTALNTHSVSPMEKIKQYQAGQTVTCFLKKYNVVKKWLEVEIAPDIRGRIPLLLTSLSFKVLKHPDKKFRVGQALRATVVGPDSSKTLLCLSLTGPHKLEEGEVAMGRVVKVTPNEGLTVSFPFGKIGTVSIFHMSDSYSETPLEDFVPQKVVRCYILSTADNVLTLSLRSSRTNPETKSKVEDPEINSIQDIKEGQLLRGYVGSIQPHGVFFRLGPSVVGLARYSHVSQHSPSKKALYNKHLPEGKLLTARVLRLNHQKNLVELSFLPGDTGKPDVLSASLEGQLTKQEERKTEAEERDQKG
notes: source: expressed and purified

Common to all, as to assay: pull-down; GST pulldown in vitro; GST-tagged p53 or HDM2 (full length or truncations) as bait, His-S-tagged PDCD11 (full length or truncations) as prey
Settings in all cases: both partners purified

Experiment [1] addresses T1, His-S-tagged full-length PDCD11 (programmed cell death 11) (human, UniProt Q14690 1-1871).
T1 construct: programmed cell death 11 (PDCD11), human, Gene ID 22984, 1871 amino acids, full length; also called PDCD11-FL; ALG-4; source: expressed and purified

The target of experiment [2] is B2.
Experiment [3] concerns the target T2, GST-tagged full-length HDM2 (UniProt Q00987-11 1-497).
T2 construct: HDM2, full length; also called HDM2-FL; GST-HDM2; source: expressed and purified

T1 sequence (Q14690 whole entry): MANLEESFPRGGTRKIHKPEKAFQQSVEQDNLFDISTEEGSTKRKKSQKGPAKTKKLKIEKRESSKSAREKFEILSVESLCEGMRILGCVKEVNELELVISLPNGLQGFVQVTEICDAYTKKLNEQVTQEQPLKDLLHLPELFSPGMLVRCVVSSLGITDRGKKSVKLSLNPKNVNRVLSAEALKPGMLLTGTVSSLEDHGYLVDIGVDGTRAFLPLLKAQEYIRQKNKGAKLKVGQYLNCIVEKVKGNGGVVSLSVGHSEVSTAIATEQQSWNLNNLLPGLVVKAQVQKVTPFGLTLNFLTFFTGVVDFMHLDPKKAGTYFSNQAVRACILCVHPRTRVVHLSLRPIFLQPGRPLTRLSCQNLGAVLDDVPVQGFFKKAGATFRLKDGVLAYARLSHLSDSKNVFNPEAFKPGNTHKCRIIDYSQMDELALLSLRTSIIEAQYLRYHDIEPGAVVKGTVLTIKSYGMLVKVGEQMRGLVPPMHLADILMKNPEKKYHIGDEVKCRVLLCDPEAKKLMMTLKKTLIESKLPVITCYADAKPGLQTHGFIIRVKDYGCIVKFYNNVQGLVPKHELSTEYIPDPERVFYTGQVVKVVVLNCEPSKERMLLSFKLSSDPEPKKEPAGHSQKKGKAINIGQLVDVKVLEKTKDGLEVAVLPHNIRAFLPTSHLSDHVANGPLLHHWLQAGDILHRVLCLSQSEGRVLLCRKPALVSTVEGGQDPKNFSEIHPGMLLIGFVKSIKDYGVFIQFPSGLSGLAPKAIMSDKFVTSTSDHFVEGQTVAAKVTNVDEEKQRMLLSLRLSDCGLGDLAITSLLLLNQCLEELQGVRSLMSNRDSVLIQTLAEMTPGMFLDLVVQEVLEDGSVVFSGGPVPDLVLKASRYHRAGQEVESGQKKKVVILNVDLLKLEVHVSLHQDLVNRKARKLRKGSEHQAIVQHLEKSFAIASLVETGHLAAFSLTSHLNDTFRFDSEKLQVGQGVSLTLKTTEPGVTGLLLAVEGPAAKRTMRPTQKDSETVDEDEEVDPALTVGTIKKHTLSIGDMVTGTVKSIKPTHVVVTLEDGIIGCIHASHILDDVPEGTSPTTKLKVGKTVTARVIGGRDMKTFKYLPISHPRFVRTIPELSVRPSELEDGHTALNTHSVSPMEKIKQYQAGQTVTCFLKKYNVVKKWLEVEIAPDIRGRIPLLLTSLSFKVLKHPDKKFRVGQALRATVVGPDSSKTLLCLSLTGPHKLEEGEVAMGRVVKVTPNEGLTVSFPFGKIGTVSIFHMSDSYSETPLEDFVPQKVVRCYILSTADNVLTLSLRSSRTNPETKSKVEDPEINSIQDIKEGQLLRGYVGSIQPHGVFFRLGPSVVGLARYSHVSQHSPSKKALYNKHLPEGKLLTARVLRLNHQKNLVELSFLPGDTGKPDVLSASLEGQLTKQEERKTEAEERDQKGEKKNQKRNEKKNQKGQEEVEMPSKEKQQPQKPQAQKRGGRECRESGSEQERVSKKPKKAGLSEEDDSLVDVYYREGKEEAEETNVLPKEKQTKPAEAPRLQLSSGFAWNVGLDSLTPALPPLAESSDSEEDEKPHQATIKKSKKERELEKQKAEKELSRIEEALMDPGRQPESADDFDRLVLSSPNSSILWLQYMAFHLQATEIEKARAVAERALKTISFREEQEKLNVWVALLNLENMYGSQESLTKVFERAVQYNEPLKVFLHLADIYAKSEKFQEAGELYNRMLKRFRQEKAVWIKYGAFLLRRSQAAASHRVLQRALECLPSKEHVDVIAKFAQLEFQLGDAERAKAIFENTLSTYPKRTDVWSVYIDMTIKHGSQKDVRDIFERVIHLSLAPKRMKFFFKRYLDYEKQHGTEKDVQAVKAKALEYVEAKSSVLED

B1: GST-tagged HDM2 (349-497) (domain or fragment, UniProt Q00987-11 349-497, looked up)
chain: EKAKLENSTQAEEGFDVPDCKKTIVNDSRESCVEENDDKITQASQSQESEDYSQPSTSSSIIYSSQEDVKEFEREETQDKEESVESSLPLNAIEPCVICQGRPKNGCIVHGKTGHLMACFTCAKKLKKRNKPCPVCRQPIQMIVLTYFP
notes: as for B2
For the molecule B1, the binding result in experiment [1] and in experiment [2] was “binds” each time. As to B2, in experiment [3], the binding result is listed as “binds”.
